Measured values published in patent US20250320312A1 (OXITOPE PHARMA B V, published 2025).
Where a chain is given by its changes, count along the chain named.

T1: Peptide 4: Biotin-AGGGGSGGGGSGGGGSAAA-Tyr-acid (N-terminal biotin; C-terminal acid; no PC)
T1 construct: control peptide without PC
T1 peptide: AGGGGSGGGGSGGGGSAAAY

T2: Peptide 8: Biotin-AEAAAKEAAAKEAAAKEAAAKAAA-Tyr-acid (N-terminal biotin; C-terminal acid; no PC)
T2 construct: control peptide without PC
T2 peptide: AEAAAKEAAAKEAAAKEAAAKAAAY

B1: PcOxP_DB04_A09 (scFv, V domains shown)
VH: EVQLLESGGGLVQPGGSLRLSCAASGFTFSDYYMEWVRQAPGKGLEWVAASRNKWNDYTTEYADSVKGRFTISRDNSKNTLYLQMNSLRAEDTAVYYCARDYYGSSYWYFDVWGQGTLVTVSS
VL: DIQMTQSPSSLSASVGDRVTITCTAEESLYSSKHKVHYLAWYQQKPGKAPKLLIYGASNLYSGVPSRFSGSGSGTDFTLTISSLQPEDFATYYCAQFYSYPLTFGGGTKVEIK
notes: scFv in periplasmic extract
B2: PcOxP_DB01_A03 (scFv, V domains shown)
VH: B1 VH with W55A
VL: DIVMTQSPDSLAVSLGERATINCTASESLYSSKHKVHYLAWYQQKPGQPPKLLIYGASNRYIGVPDRFSGSGSGTDFTLTISSLQAEDVAVYYCAQFYSYPLTFGGGTKVEIK
notes: scFv in periplasmic extract
B3: PcOxP_DB03_H03 (scFv, V domains shown)
VH: B1 VH with F29G, Y32F
VL: DIQMTQSPSSLSASVGDRVTITCTASESLSSSKHKHYLAWYQQKPGKAPKLLIYGASSRYSGVPSRFSGSGSGTDFTLTISSLQPEDFATYYCAQFYSYPLTFGGGTKVEIK
notes: scFv in periplasmic extract
B4: PcOxP_DB04_H03 (scFv, V domains shown)
VH: B1 VH with T28P, Y32F, W55A
VL: DIQMTQSPSSLSASVGDRVTITCRASESLYSSLHKYLAWYQQKPGKAPKLLIYGASNLQIGVPSRFSGSGSGTDFTLTISSLQPEDFATYYCAQFYSYPLTFGGGTKVEIK
notes: scFv in periplasmic extract
B5: PcOxP_DB01_C10 (scFv, V domains shown)
VH: B1 VH with Y32F, W55A
VL: B2 VL with A25S, E27Q, Y30L, K33S, K35N, V36K, H37N
notes: scFv in periplasmic extract
B6: PcOxP_DB01_D04 (scFv, V domains shown)
VH: B1 VH with Y32F, W55A
VL: B2 VL with Y30W
notes: scFv in periplasmic extract
B7: PcOxP_DB01_B02 (scFv, V domains shown)
VH: B1 VH with F27G, Y32F, W55A, D57S, E61A
VL: B2 VL
notes: scFv in periplasmic extract
B8: PcOxP_DB04_F11 (scFv, V domains shown)
VH: B1 VH with F29G, Y32F, N53G, W55G, D57S, Y107T
VL: B1 VL with E26S, L60R, S62A, A95G
notes: scFv in periplasmic extract
B9: PcOxP_DB04_A12 (scFv, V domains shown)
VH: B1 VH with Y32G
VL: B1 VL with E26S, L60R, S62D
notes: scFv in periplasmic extract
B10: PcOxP_DB01_A04 (scFv, V domains shown)
VH: B1 VH with F29H, Y32F, W55A
VL: B2 VL
notes: scFv in periplasmic extract
B11: PcOxP_DB04_H10 (scFv, V domains shown)
VH: B1 VH with F27A, Y32F, M34V, W55A
VL: B1 VL with E26S, A57P, L60R, S62I
notes: scFv in periplasmic extract
B12: PcOxP_DB01_B10 (scFv, V domains shown)
VH: B1 VH with Y32F, W55A, E61T, Y107H
VL: B2 VL with H34G, A95V
notes: scFv in periplasmic extract
B13: PcOxP_DB01_C07 (scFv, V domains shown)
VH: B1 VH with W55A
VL: B2 VL with I62D
notes: scFv in periplasmic extract
B14: PcOxP_DB04_B08 (scFv, V domains shown)
VH: B1 VH with Y32D, W55A
VL: B1 VL with E26S, A57L, L60R, S62I, Y98F
notes: scFv in periplasmic extract
B15: PcOxP_DB04_C03 (scFv, V domains shown)
VH: B1 VH with F29T, Y32F, W55A, D57S
VL: B1 VL with E26S, N59S, S99E
notes: scFv in periplasmic extract
B16: PcOxP_DB04_F06 (scFv, V domains shown)
VH: B1 VH with F27D, Y32F, W55A
VL: B1 VL with E26S, Y30S, L60R, S62I
notes: scFv in periplasmic extract
B17: PcOxP_DB01_A08 (scFv, V domains shown)
VH: B1 VH with F29Q, Y32F, S51I, W55A, D57S
VL: B2 VL with L29V, H34N, V36K
notes: scFv in periplasmic extract
B18: PcOxP_DB04_H08 (scFv, V domains shown)
VH: B1 VH with Y32G, W55A
VL: B1 VL with E26S
notes: scFv in periplasmic extract
B19: PcOxP_DB04_D08 (scFv, V domains shown)
VH: B1 VH with Y32H, W55A
VL: B1 VL with E26S, L60R, Y61A, S62I, S99T
notes: scFv in periplasmic extract
B20: PcOxP_DB01_B03 (scFv, V domains shown)
VH: B1 VH with D31S, W55A
VL: B2 VL
notes: scFv in periplasmic extract
B21: PcOxP_DB01_D01 (scFv, V domains shown)
VH: B1 VH with D31S, W55A
VL: B2 VL with S32P, S99I
notes: scFv in periplasmic extract
B22: PcOxP_DB04_G06 (scFv, V domains shown)
VH: B1 VH with Y32F, N53W, W55A, G104E
VL: B1 VL with E26S, E27Q, L60R, S62I, S99V
notes: scFv in periplasmic extract
B23: PcOxP_DB01_A05 (scFv, V domains shown)
VH: B1 VH with W55A, S105N
VL: B2 VL
notes: scFv in periplasmic extract
B24: PcOxP_DB01_B06 (scFv, V domains shown)
VH: B1 VH with D31S, W55Y, Y107T
VL: B2 VL
notes: scFv in periplasmic extract
B25: PcOxP_DB04_A10 (scFv, V domains shown)
VH: B1 VH with F27D, Y32F
VL: B1 VL with E26S, L60R, Y61Q, S62I
notes: scFv in periplasmic extract
B26: PcOxP_DB01_B12 (scFv, V domains shown)
VH: B1 VH with D31S, W55G, D57S
VL: B2 VL with A95G
notes: scFv in periplasmic extract
B27: PcOxP_DB01_C09 (scFv, V domains shown)
VH: B1 VH with Y32F, W55A
VL: B2 VL with E27Q, L29V, H34N
notes: scFv in periplasmic extract
B28: PcOxP_DB04_C08 (scFv, V domains shown)
VH: B1 VH with F27E, Y32F, W55A
VL: B1 VL with E26S, K35G, L60R, S62I, S99Q
notes: scFv in periplasmic extract
B29: PcOxP_DB04_H07 (scFv, V domains shown)
VH: B1 VH with S30E, Y32F, W55A
VL: B1 VL with E26S, L60R, Y61V, S62I
notes: scFv in periplasmic extract

What follows are binders tested against BSA (UniProt P02769) (assay: scFv ELISA).
BSA, sequence (P02769 25-607 limits assumed): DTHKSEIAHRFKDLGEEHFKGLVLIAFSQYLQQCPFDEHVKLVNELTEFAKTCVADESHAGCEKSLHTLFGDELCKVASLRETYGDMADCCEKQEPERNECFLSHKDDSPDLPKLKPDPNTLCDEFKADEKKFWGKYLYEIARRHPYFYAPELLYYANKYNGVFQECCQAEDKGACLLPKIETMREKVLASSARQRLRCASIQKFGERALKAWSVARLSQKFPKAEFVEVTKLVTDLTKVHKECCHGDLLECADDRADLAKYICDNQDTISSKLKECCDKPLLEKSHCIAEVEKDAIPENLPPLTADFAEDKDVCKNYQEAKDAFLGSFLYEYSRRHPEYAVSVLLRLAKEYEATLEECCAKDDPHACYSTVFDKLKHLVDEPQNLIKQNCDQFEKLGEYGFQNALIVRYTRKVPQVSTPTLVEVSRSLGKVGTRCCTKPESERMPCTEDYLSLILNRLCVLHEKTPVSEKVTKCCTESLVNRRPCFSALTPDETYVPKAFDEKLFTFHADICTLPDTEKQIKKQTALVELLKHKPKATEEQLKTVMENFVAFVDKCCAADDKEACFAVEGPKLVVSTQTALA

OD450 [OD450]	Binder
0.12	B1
0.07	B2
0.12	B3
0.1	B4
0.07	B5
0.07	B6
0.09	B7
0.1	B8
0.12	B9
0.07	B10
0.1	B11
0.08	B12
0.05	B13
0.11	B14
0.1	B15
0.1	B16
0.09	B17
0.09	B18
0.12	B19
0.08	B20
0.06	B21
0.11	B22
0.06	B23
0.08	B24
0.11	B25
0.09	B26
0.07	B27
0.08	B28
0.09	B29

These binders were tested against Peptide 1: Biotin-…-[Tyr(PC)]-acid (assay: scFv ELISA).

OD450 [OD450]	Binder
1.16	B1
0.86	B2
0.27	B3
0.8	B4
0.13	B5
0.45	B6
0.68	B7
0.58	B8
0.71	B9
0.31	B10
0.54	B11
0.52	B12
0.53	B13
1.33	B14
1.34	B15
0.75	B16
0.16	B17
0.85	B18
1.6	B19
0.82	B20
0.85	B21
1.03	B22
0.83	B23
0.79	B24
0.74	B25
0.56	B26
0.27	B27
0.69	B28
0.58	B29

Each binder was assayed against Peptide 5: Biotin-…-[Tyr(PC)]-acid (assay: scFv ELISA).

OD450 [OD450]	Binder
1.96	B1
1.38	B2
1.32	B3
1.05	B4
0.53	B5
0.87	B6
1.41	B7
1.27	B8
1.38	B9
0.75	B10
1.01	B11
1.11	B12
1.1	B13
1.56	B14
1.87	B15
1.3	B16
1.12	B17
1.42	B18
1.96	B19
1.25	B20
1.12	B21
1.12	B22
1.28	B23
1.45	B24
1.61	B25
1.19	B26
0.94	B27
1.07	B28
1.02	B29

Biological target: T1, Peptide 4: …
Assay: scFv ELISA
Method in brief: (§1)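 Bound scFv was read as OD450 after HRP–anti-V5 detection, TMB development and HCl stop. PPE with BSA was incubated 1 h at RT on BSA-blocked wells coated overnight at 4° C. with peptide, or on streptavidin wells loaded 1 h with biotinylated PC-peptides at 1 μg/mL.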

OD450 [OD450]	Binder
0.06	B1
0.05	B2
0.07	B3
0.07	B4
0.04	B5
0.08	B6
0.06	B7
0.07	B8
0.07	B9
0.04	B10
0.08	B11
0.05	B12
0.04	B13
0.06	B14
0.06	B15
0.06	B16
0.05	B17
0.07	B18
0.07	B19
0.05	B20
0.05	B21
0.07	B22
0.04	B23
0.05	B24
0.06	B25
0.06	B26
0.05	B27
0.05	B28
0.06	B29

Biological target: T2, Peptide 8: …
Assay: scFv ELISA
Method in brief: as §1

OD450 [OD450]	Binder
0.06	B1
0.04	B2
0.07	B3
0.08	B4
0.04	B5
0.06	B6
0.05	B7
0.06	B8
0.06	B9
0.04	B10
0.07	B11
0.04	B12
0.04	B13
0.05	B14
0.06	B15
0.06	B16
0.05	B17
0.06	B18
0.07	B19
0.05	B20
0.04	B21
0.07	B22
0.04	B23
0.05	B24
0.06	B25
0.05	B26
0.05	B27
0.06	B28
0.05	B29
